From the Human Domainome abundance scans (Beltran et al. 2025)
± gives the uncertainty stated by the source.

B1: POU domain, class 4, transcription factor 3, residues 185 to 256; numbered along this chain, Q15319 (parent)
chain: RELEAFAERFKQRRIKLGVTQADVGAALANLKIPGVGSLSQSTICRFESLTLSHNNMIALKPVLQAWLEEAE

Variants of: B1
Experiment: abundance fitness (aPCA) (normalised: wild type 0, dead -1); higher = more abundant; growth selection in yeast, the domain comes from the species named
Conditions: Homo sapiens

Q: For RELEAFAERFKQRRIKLGVTQADVGAALANLKIPGVGSLSQSTICRFESLTLSHNNMIALKPVLQAPLEEAE [W67P], which abundance fitness is on record?
A: Its abundance fitness is -0.618 ± 0.1.

Q: With RELEAFAERFKQRRIKLGVTQADVGAALANLKIPGVGSLSQSTICRFESLTLSHNNMIALKPVLQACLEEAE [W67C] as the variant, how does the abundance fitness read?
A: The abundance fitness was -0.496 ± 0.22.

Q: With RELEAFAERFKQRRIKLGVTQADVGAALANLKIPGVGSLSQSTICRFESLTLSHNNMIALKPVLQASLEEAE [W67S] as the variant, how does the abundance fitness read?
A: Its abundance fitness is -0.684 ± 0.14.

Q: With RELEAFAERFKQRRIKLGVTQADVGAALANLKIPGVGSLSQSTICRFESLTLSHNNMIALKPVLQATLEEAE [W67T] as the variant, how does the abundance fitness read?
A: The abundance fitness was -0.697 ± 0.11.

Q: With RELEAFAERFKQRRIKLGVTQADVGAALANLKIPGVGSLSQSTICRFESLTLSHNNMIALKPVLQAQLEEAE [W67Q] as the variant, how does the abundance fitness read?
A: Its abundance fitness is -1.02 ± 0.24.

Q: For RELEAFAERFKQRRIKLGVTQADVGAALANLKIPGVGSLSQSTICRFESLTLSHNNMIALKPVLQAYLEEAE [W67Y], which abundance fitness is on record?
A: Its abundance fitness is -0.09 ± 0.087.

Q: With RELEAFAERFKQRRIKLGVTQADVGAALANLKIPGVGSLSQSTICRFESLTLSHNNMIALKPVLQAHLEEAE [W67H] as the variant, how does the abundance fitness read?
A: The abundance fitness was -0.795 ± 0.11.

Q: For RELEAFAERFKQRRIKLGVTQADVGAALANLKIPGVGSLSQSTICRFESLTLSHNNMIALKPVLQANLEEAE [W67N], which abundance fitness is on record?
A: The abundance fitness was -0.491 ± 0.16.

Q: Which abundance fitness does the source give for RELEAFAERFKQRRIKLGVTQADVGAALANLKIPGVGSLSQSTICRFESLTLSHNNMIALKPVLQAFLEEAE [W67F] here?
A: The abundance fitness was -0.06 ± 0.065.

Q: Which abundance fitness does the source give for RELEAFAERFKQRRIKLGVTQADVGAALANLKIPGVGSLSQSTICRFESLTLSHNNMIALKPVSQAWLEEAE [L64S] here?
A: The abundance fitness was -0.768 ± 0.076.

Q: Which abundance fitness does the source give for RELEAFAERFKQRRIKLGVTQADVGAALANLKIPGVGSLSQSTICRFESLTLSHNNMIALKPVFQAWLEEAE [L64F] here?
A: Its abundance fitness is -0.412 ± 0.06.

Q: For RELEAFAERFKQRRIKLGVTQADVGAALANLKIPGVGSLSQSTICRFESLTLSHNNMIALKPVVQAWLEEAE [L64V], which abundance fitness is on record?
A: The abundance fitness was -0.425 ± 0.024.

Q: For RELEAFAERFKQRRIKLGVTQADVGAALANLKIPGVGSLSQSTICRFESLTLSHNNMIALKPVKQAWLEEAE [L64K], which abundance fitness is on record?
A: Its abundance fitness is -0.678 ± 0.066.

Q: For RELEAFAERFKQRRIKLGVTQADVGAALANLKIPGVGSLSQSTICRFESLTLSHNNMIALKPVMQAWLEEAE [L64M], which abundance fitness is on record?
A: The abundance fitness was -0.17 ± 0.034.

Q: Which abundance fitness does the source give for RELEAFAERFKQRRIKLGVTQADVGAALANLKIPGVGSLSQSTICRFESLTLSHNNMIALKPVYQAWLEEAE [L64Y] here?
A: The abundance fitness was -0.322 ± 0.069.

Q: With RELEAFAERFKQRRIKLGVTQADVGAALANLKIPGVGSLSQSTICRFESLTLSHNNMIALKPVEQAWLEEAE [L64E] as the variant, how does the abundance fitness read?
A: Its abundance fitness is -0.788 ± 0.049.

Q: Which abundance fitness does the source give for RELEAFAERFKQRRIKLGVTQADVGAALANLKIPGVGSLSQSTICRFESLTLSHNNMIALKPVGQAWLEEAE [L64G] here?
A: Its abundance fitness is -0.836 ± 0.037.

Q: With RELEAFAERFKQRRIKLGVTQADVGAALANLKIPGVGSLSQSTICRFESLTLSHNNMIALKPVDQAWLEEAE [L64D] as the variant, how does the abundance fitness read?
A: The abundance fitness was -0.737 ± 0.084.

Q: For RELEAFAERFKQRRIKLGVTQADVGAALANLKIPGVGSLSQSTICRFESLTLSHNNMIALKPVCQAWLEEAE [L64C], which abundance fitness is on record?
A: Its abundance fitness is -0.717 ± 0.084.

Q: For RELEAFAERFKQRRIKLGVTQADVGAALANLKIPGVGSLSQSTICRFESLTLSHNNMIALKPVRQAWLEEAE [L64R], which abundance fitness is on record?
A: The abundance fitness was -0.818 ± 0.055.

Q: For RELEAFAERFKQRRIKLGVTQADVGAALANLKIPGVGSLSQSTICRFESLTLSHNNMIALKPVIQAWLEEAE [L64I], which abundance fitness is on record?
A: Its abundance fitness is -0.402 ± 0.098.

Q: With RELEAFAERFKQRRIKLGVTQADVGAALANLKIPGVGSLSQSTICRFESLTLSHNNMIALKPVNQAWLEEAE [L64N] as the variant, how does the abundance fitness read?
A: The abundance fitness was -0.758 ± 0.11.

Q: Which abundance fitness does the source give for RELEAFAERFKQRRIKLGVTQADVGAALANLKIPGVGSLSQSTICRFESLTLSHNNMIALKPVLLAWLEEAE [Q65L] here?
A: Its abundance fitness is -0.486 ± 0.17.

Q: With RELEAFAERFKQRRIKLGVTQADVGAALANLKIPGVGSLSQSTICRFESLTLSHNNMIALKPVLCAWLEEAE [Q65C] as the variant, how does the abundance fitness read?
A: The abundance fitness was -0.1 ± 0.21.

Q: With RELEAFAERFKQRRIKLGVTQADVGAALANLKIPGVGSLSQSTICRFESLTLSHNNMIALKPVLDAWLEEAE [Q65D] as the variant, how does the abundance fitness read?
A: The abundance fitness was -0.065 ± 0.15.

Q: With RELEAFAERFKQRRIKLGVTQADVGAALANLKIPGVGSLSQSTICRFESLTLSHNNMIALKPVLRAWLEEAE [Q65R] as the variant, how does the abundance fitness read?
A: The abundance fitness was -0.252 ± 0.16.

Q: With RELEAFAERFKQRRIKLGVTQADVGAALANLKIPGVGSLSQSTICRFESLTLSHNNMIALKPVLSAWLEEAE [Q65S] as the variant, how does the abundance fitness read?
A: Its abundance fitness is -0.127 ± 0.3.

Q: Which abundance fitness does the source give for RELEAFAERFKQRRIKLGVTQADVGAALANLKIPGVGSLSQSTICRFESLTLSHNNMIALKPVLVAWLEEAE [Q65V] here?
A: The abundance fitness was -0.085 ± 0.21.

Q: For RELEAFAERFKQRRIKLGVTQADVGAALANLKIPGVGSLSQSTICRFESLTLSHNNMIALKPVLKAWLEEAE [Q65K], which abundance fitness is on record?
A: The abundance fitness was -0.011 ± 0.41.

Q: Which abundance fitness does the source give for RELEAFAERFKQRRIKLGVTQADVGAALANLKIPGVGSLSQSTICRFESLTLSHNNMIALKPVLGAWLEEAE [Q65G] here?
A: Its abundance fitness is 0.011 ± 0.14.

Q: Which abundance fitness does the source give for RELEAFAERFKQRRIKLGVTQADVGAALANLKIPGVGSLSQSTICRFESLTLSHNNMIALKPVLHAWLEEAE [Q65H] here?
A: The abundance fitness was -0.076 ± 0.2.

Q: With RELEAFAERFKQRRIKLGVTQADVGAALANLKIPGVGSLSQSTICRFESLTLSHNNMIALKPTLQAWLEEAE [V63T] as the variant, how does the abundance fitness read?
A: The abundance fitness was -0.254 ± 0.11.

Q: Which abundance fitness does the source give for RELEAFAERFKQRRIKLGVTQADVGAALANLKIPGVGSLSQSTICRFESLTLSHNNMIALKPWLQAWLEEAE [V63W] here?
A: The abundance fitness was -0.022 ± 0.094.

Q: For RELEAFAERFKQRRIKLGVTQADVGAALANLKIPGVGSLSQSTICRFESLTLSHNNMIALKPMLQAWLEEAE [V63M], which abundance fitness is on record?
A: Its abundance fitness is -0.085 ± 0.093.

Q: For RELEAFAERFKQRRIKLGVTQADVGAALANLKIPGVGSLSQSTICRFESLTLSHNNMIALKPSLQAWLEEAE [V63S], which abundance fitness is on record?
A: The abundance fitness was -0.162 ± 0.12.

Q: With RELEAFAERFKQRRIKLGVTQADVGAALANLKIPGVGSLSQSTICRFESLTLSHNNMIALKPPLQAWLEEAE [V63P] as the variant, how does the abundance fitness read?
A: The abundance fitness was -0.161 ± 0.087.

Q: With RELEAFAERFKQRRIKLGVTQADVGAALANLKIPGVGSLSQSTICRFESLTLSHNNMIALKPQLQAWLEEAE [V63Q] as the variant, how does the abundance fitness read?
A: The abundance fitness was -0.34 ± 0.094.

Q: Which abundance fitness does the source give for RELEAFAERFKQRRIKLGVTQADVGAALANLKIPGVGSLSQSTICRFESLTLSHNNMIALKPRLQAWLEEAE [V63R] here?
A: Its abundance fitness is -0.157 ± 0.049.
